Results as given in patent US20060294600A1.

Biological target: Runx2 expressed from pCMV5 Cbfa1 in transfected cells
Test: cell-based or functional assay

## Fhl2 expressed from pCMX Fhl2 in Cos-7 cells (from UniProt Q14192 1-279)
  transcriptional activity of Runx2 (luciferase reporter, transient transfection in Cos-7 cells; 6xOSE2 artificial promoter and human osteocalcin promoter): 3 fold
